PMC5845983
pKd: −log10 of the molar value.

Assays:
[1] = molecular target: CR1 soluble CR1 (Homo sapiens) (UniProt P17927); assay: SPR; conditions: cited from earlier work
[2] = molecular target: CR1 CCP22-30 (Homo sapiens) (UniProt P17927); assay: SPR; conditions: cited from earlier work
[3] = molecular target: CR1 bimodular fragment CCP24-25 His6 (human); assay: SPR; BIAcore 3000, multiple cycle; CCP24-25 amine-coupled on CM5 (1,000 RU); MBL injected at 20 µl/min in buffer with 3 mM EDTA (methods: HBS-P; legend of Figure 4: 50 mM TEA, 145 mM NaCl, 0.05% P20, pH 7.4); global 1:1 Langmuir fit; apparent KD = kd/ka

Sequence of MBL (P11226 21-248): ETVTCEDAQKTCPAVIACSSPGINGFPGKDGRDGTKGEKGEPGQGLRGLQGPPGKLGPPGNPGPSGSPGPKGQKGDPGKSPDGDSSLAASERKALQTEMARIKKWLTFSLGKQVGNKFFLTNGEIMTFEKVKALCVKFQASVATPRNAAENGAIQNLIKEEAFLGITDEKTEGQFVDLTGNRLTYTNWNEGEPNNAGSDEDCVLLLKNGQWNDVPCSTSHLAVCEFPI

pKd [3]	koff [3]	Substance	pKd [1]	pKd [2]
–	–	MBL (from UniProt P11226)	9.12	9.43
9.19	0.00109 s⁻¹	Recombinant mannose-binding lectin (MBL) (from UniProt P11226 21-248) (natural protein)	–	–
